Molecular target: Mycobacterium tuberculosis ClpC2 (full length, wild type) (Mycobacterium tuberculosis)
Assay: SEC

## Mycobacterium tuberculosis ClpC2 (full length, wild type) (natural protein)
  stoichiometry N: 2
